Common to all, as to assay: cell-based or functional assay
Assay [1] addresses Env of HIV-1 strain 251-18 (HIV-1).
Assay [2] has as its target Env of HIV-1 strain 3415.v1.c1 (HIV-1).
Assay [3] addresses Env of HIV-1 strain 3365.v2.c20 (HIV-1).
Assay [4] deals with Env of HIV-1 strain 250-4 (HIV-1).
Assay [5] addresses Env of HIV-1 strain YU2.DG (HIV-1).
In assay [6] the target is Env of HIV-1 strain Du172.17 (HIV-1).
Assay [7] addresses Env of HIV-1 strain 231965.c1 (HIV-1).
The target of assay [8] is Env of HIV-1 strain H086.8 (HIV-1).
Assay [9] deals with Env of HIV-1 strain ZM53M.PB12 (HIV-1).
The target in assay [10] is Env of HIV-1 strain REJO4541.67 (HIV-1).
In assay [11] the target is Env of HIV-1 strain X1254_c3 (HIV-1).
In assay [12] the target is Env of HIV-1 strain R1166.c1 (HIV-1).
Assay [13] has as its target Env of HIV-1 strain ZM109F.PB4 (HIV-1).
Assay [14] deals with Env of HIV-1 strain 3016.v5.c45 (HIV-1).
The target in another assay is Env of MuLV.
For assay [15], the target named is Env of HIV-1 strain PVO.4 (HIV-1).

Numbering of substitutions follows the chain as printed. A value given as a limit tells only on which side of the number the result lay.

B1: γ59κ5 (antibody, V domains shown)
VH: QIHLVQSGTEVKKPGSSVTVSCKAYGVNTFGLYAVNWVRQAPGQGLEYIGQIWRWKSSASHHFRGRVLISAVDLTGSSPPISSLEIKNVTSDDTAVYFCTTTSTYDEWSDLHHDGVMAFSSWGQGTLISVSA
VL: DIQMTQSPSTLSASTGDTVRISCRASQSITGNWVAWYQQRPGKAPRLLIYRGAALLGGVPSRFRGSAAGTDFTLTIGNLQAEDFGTFYCQQYDTYPGTFGQGTKVEVKR
For the molecule B1, the neutralization IC50 in assay [1] is 6.96 mg/L; in assay [2], above 15 mg/L; in assay [3], above 15 mg/L; in assay [4], above 15 mg/L; in assay [5] it was 7.28 mg/L; in assay [6], above 15 mg/L. The neutralization IC50 in [7] is above 15 mg/L; in assay [8], above 15 mg/L; in assay [9] it was 24.1 mg/L; in assay [10], 4.67 mg/L; in assay [11], 9.42 mg/L; in [12], 28.2 mg/L. The neutralization IC50 was above 15 mg/L in assay [13], above 15 mg/L in [14], above 30 mg/L with Env of MuLV and above 15 mg/L in assay [15].

B2: γ3κ11 (antibody, V domains shown)
VH: QIHLVQSGTEVKKPGSSVTVSCKAYGVNTFGLYAVSWVRQAPGQRLEYIGQIRRWKSSASHHFRGRVTVSAVDPTGSSPPISSLEIRDLTTDDTAVYFCTTTSTSDYWSGLHNERGTAFSSWGQGTLISVSA
VL: B1 VL with T15V, D17G, N32G, V34L, Q38H, A53S, A54R, R64S, G77A
On to B2, for which the neutralization IC50 in assay [1] is above 15 mg/L; in [2], above 15 mg/L; in [3], above 15 mg/L; in [4], above 15 mg/L; in assay [5], 0.276 mg/L; in assay [6], above 15 mg/L. Further, the neutralization IC50 in [7] was 0.455 mg/L; in assay [8], 0.778 mg/L; in assay [9] it was above 15 mg/L; in [10] it was 0.091 mg/L; in assay [11], 2.31 mg/L; in assay [12], 1.79 mg/L. The neutralization IC50 in assay [13] was above 15 mg/L; in assay [14], 0.145 mg/L; with Env of MuLV, above 30 mg/L; in [15], 0.074 mg/L.

B3: γ20κ11 (antibody, V domains shown)
VH: B1 VH with T19A, G45S, H62D, L68I, V89L, T101A, Y105P, E107Y, D110G
VL: B1 VL with T15V, D17G, N32G, V34L, Q38H, A53S, A54R, R64S, G77A
For the molecule B3, the neutralization IC50 in assay [1], in [2], in [3], in assay [4], in assay [5] and in [6] was above 15 mg/L in each case. The neutralization IC50 was above 15 mg/L in assay [7]; above 15 mg/L in [8]; above 15 mg/L in assay [9]; above 15 mg/L in [10]; 7.5 mg/L in assay [11]; 20.2 mg/L in assay [12]. Further, the neutralization IC50 in [13] was above 15 mg/L; in assay [14] it was above 15 mg/L; with Env of MuLV it was above 30 mg/L; in assay [15], above 15 mg/L.

B4: γ15κ11 (antibody, V domains shown)
VH: B1 VH with G45S, L68I, V89L, T102A, E107K, D110G
VL: B1 VL with T15V, D17G, N32G, V34L, Q38H, A53S, A54R, R64S, G77A
Consider B4, for which the neutralization IC50 is above 15 mg/L in assay [1]; above 15 mg/L in assay [2]; above 15 mg/L in assay [3]; above 15 mg/L in assay [4]; 4.12 mg/L in assay [5]; above 15 mg/L in assay [6]. Moreover, the neutralization IC50 is 5.1 mg/L in assay [7]; above 15 mg/L in [8]; above 15 mg/L in [9]; above 15 mg/L in assay [10]; 13.7 mg/L in [11]; 9.81 mg/L in [12]. For the same molecule, the neutralization IC50 in [13] was above 15 mg/L; in [14] it was 1.32 mg/L; in the assay with Env of MuLV, above 30 mg/L; in assay [15], 6.7 mg/L.

B5: γ22κ11 (antibody, V domains shown)
VH: B1 VH with G45S, S77P, V89L, E107K, D110G
VL: B1 VL with T15V, D17G, N32G, V34L, Q38H, A53S, A54R, R64S, G77A
Regarding B5, the neutralization IC50 in assay [1], in assay [2], in assay [3], in assay [4], in [5] and in assay [6] was above 15 mg/L each time. The neutralization IC50 in [7], in assay [8], in [9], in [10], in [11] and in assay [12] was above 15 mg/L in each case. Besides, the neutralization IC50 in assay [13] is above 15 mg/L; in assay [14], above 15 mg/L; in the assay with Env of MuLV, above 30 mg/L; in [15], above 15 mg/L.

B6: γ46κ11 (antibody, V domains shown)
VH: B1 VH with E107K, D110G, M117V
VL: B1 VL with T15V, D17G, N32G, V34L, Q38H, A53S, A54R, R64S, G77A
Turning to B6, the neutralization IC50 in assay [1] is above 15 mg/L; in assay [2], above 15 mg/L; in assay [3], above 15 mg/L; in assay [4], above 15 mg/L; in [5], 2.1 mg/L; in assay [6], above 15 mg/L. For the same molecule, the neutralization IC50 in assay [7] was 2.95 mg/L; in assay [8], above 15 mg/L; in assay [9], above 15 mg/L; in [10], above 15 mg/L; in assay [11], 5.68 mg/L; in assay [12] it was 3.39 mg/L. In addition, the neutralization IC50 in [13] was above 15 mg/L; in [14] it was 1.93 mg/L; with Env of MuLV, above 30 mg/L; in [15], 2.92 mg/L.

B7: γ23κ11 (antibody, V domains shown)
VH: B1 VH with G45S, L68I, V89L, Y105S, E107Y, D110G
VL: B1 VL with T15V, D17G, N32G, V34L, Q38H, A53S, A54R, R64S, G77A
In the case of B7, the neutralization IC50 is 2.49 mg/L in [1]; above 15 mg/L in [2]; above 15 mg/L in assay [3]; above 15 mg/L in [4]; 0.34 mg/L in assay [5]; 11.3 mg/L in assay [6]. Moreover, the neutralization IC50 in assay [7] was 0.543 mg/L; in assay [8], above 15 mg/L; in [9], above 15 mg/L; in assay [10] it was 0.14 mg/L; in [11], 1.7 mg/L; in assay [12] it was 1.61 mg/L. In addition, the neutralization IC50 was above 15 mg/L in assay [13], 0.159 mg/L in [14], above 30 mg/L in the assay with Env of MuLV and 0.103 mg/L in assay [15].

B8: γ44κ11 (antibody, V domains shown)
VH: B1 VH with G26E, G45S, Y105H, E107K, D110G
VL: B1 VL with T15V, D17G, N32G, V34L, Q38H, A53S, A54R, R64S, G77A
For B8, the neutralization IC50 in assay [1], in assay [2], in assay [3], in assay [4], in assay [5] and in [6] was above 15 mg/L in each case. Besides, the neutralization IC50 in assay [7], in assay [8], in assay [9], in assay [10], in assay [11] and in assay [12] was above 15 mg/L throughout. For the same molecule, the neutralization IC50 in assay [13] was above 15 mg/L; in assay [14], above 15 mg/L; in the assay with Env of MuLV, above 19 mg/L; in [15], above 15 mg/L.

B9: γ52κ11 (antibody, V domains shown)
VH: B1 VH with G45S, V89L, E107R, D110G
VL: B1 VL with T15V, D17G, N32G, V34L, Q38H, A53S, A54R, R64S, G77A
As to B9, the neutralization IC50 in assay [1] was 0.647 mg/L; in assay [2] it was above 15 mg/L; in [3] it was above 15 mg/L; in assay [4], above 15 mg/L; in [5], 0.298 mg/L; in assay [6] it was above 15 mg/L. Besides, the neutralization IC50 is 0.298 mg/L in assay [7]; 1.64 mg/L in assay [8]; above 15 mg/L in assay [9]; 3.47 mg/L in [10]; 2.42 mg/L in assay [11]; 1.16 mg/L in assay [12]. In addition, the neutralization IC50 in assay [13] is above 15 mg/L; in assay [14] it was 0.161 mg/L; in the assay with Env of MuLV, above 30 mg/L; in [15], 0.103 mg/L.

These data come from patent US20180171001A1.
